According to patent US20020102617:

Tests used:
[1] = system: Kemptide (a peptide substrate for PKA)
[2] = system: protein phosphatase inhibitor 2 (I-2)

Substance | phosphorylation (33P-γ-ATP, autoradiography emulsion on slide) (Elk1) | phosphorylation (33P-γ-ATP, autoradiography emulsion on slide) [1] | phosphorylation (33P-γ-ATP, autoradiography emulsion on slide) [2]
casein kinase II (CKII) | only the specific substrates of these kinases (I-2 and Elk1, respectively) were phosphorylated (Elk1 not phosphorylated by CKII) | only the specific substrates of these kinases (I-2 and Elk1, respectively) were phosphorylated (Kemptide not phosphorylated by CKII) | only the specific substrates of these kinases (I-2 and Elk1, respectively) were phosphorylated
catalytic subunit of cAMP-dependent protein kinase (PKA) | only the substrate for PKA (Kemptide) was phosphorylated (Elk1 not phosphorylated) | only the substrate for PKA (Kemptide) was phosphorylated | only the substrate for PKA (Kemptide) was phosphorylated (I-2 not phosphorylated)
p42 MAP kinase (Erk2) | only the specific substrates of these kinases (I-2 and Elk1, respectively) were phosphorylated | only the specific substrates of these kinases (I-2 and Elk1, respectively) were phosphorylated (Kemptide not phosphorylated by Erk2) | only the specific substrates of these kinases (I-2 and Elk1, respectively) were phosphorylated (I-2 not phosphorylated by Erk2)
